{
  "source": "the supplement of paper PMC12783771",
  "parents": {"B1": {"name": "library; numbered along this chain (parent)", "chain": "MNIQIGELAKRTACPVVTIRFYEQEGLLPPPGRSRGNFRLYGEEHVERLQFIRHCRSLDMPLSDVRTLLSYRKRPDQDCGEVNMLLDEHIRQVESRIGALLELKHHLVELREACSGARPAQSCGILQGLSDCVCDTRGTTAHPSD"}},
  "key": {"[1]": {"variants_of": "B1", "experiment": "sfGFP reporter fluorescence (15 h) (µM FITC); higher = higher leak", "details": "library round: Round 0; ligand: none", "how_it_was_run": "(§1)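 Values are endpoint sfGFP fluorescence given as µM FITC equivalents. Fluorescence was read at 485/528 nm on a Synergy Neo2, and FITC standard curves were prepared in 50 mM sodium borate pH 8.5. Reactions of 1 μL combined BL21 Star (DE3) PANOx-SP extract, pPbrR-sfGFP reporter, 30 μg/mL GamS and linear PbrR templates (PCR-made, Echo-normalized to 5 nM), with 1 µM lead chloride, 30 µM zinc acetate or no metal, for 15 hr at 30 °C.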"}, "[2]": {"variants_of": "B1", "experiment": "sfGFP reporter fluorescence (15 h) (µM FITC); higher = stronger transcriptional activation", "details": "library round: Round 0", "how_it_was_run": "as §1"}},
  "note": "± gives the standard deviation of the averaged measurements.",
  "data": [
    {"variant": "MNIQIGELAKRTACPVVTIRFYEQEGLLPPPGRSRGNFRLRGEEHVERLQFIRHCRSLDMPLSDVRTLLSYRKRPDQDCGEVNMLLDEHIRQVESRIGALLELKHHLVELREACSGARPAQSCGILQGLSDCVCDTRGTTAHPSD", "note": "[Y41R]", "values": [
      {"measurement": "sfGFP reporter fluorescence", "setting": "[1]", "result": "0.0618 ± 0.0013"},
      {"measurement": "sfGFP reporter fluorescence", "setting": "[2]; ligand: 1 µM Pb", "result": "0.0623 ± 0.001"},
      {"measurement": "sfGFP reporter fluorescence", "setting": "[2]; ligand: 30 µM Zn", "result": "0.0643 ± 0.0013"}
    ]},
    {"variant": "MNIQIGELAKRTACPVVTIRFYEQEGLLPPPGRSRGNFRLQGEEHVERLQFIRHCRSLDMPLSDVRTLLSYRKRPDQDCGEVNMLLDEHIRQVESRIGALLELKHHLVELREACSGARPAQSCGILQGLSDCVCDTRGTTAHPSD", "note": "[Y41Q]", "values": [
      {"measurement": "sfGFP reporter fluorescence", "setting": "[1]", "result": "0.0581 ± 0.0023"},
      {"measurement": "sfGFP reporter fluorescence", "setting": "[2]; ligand: 1 µM Pb", "result": 0.0597},
      {"measurement": "sfGFP reporter fluorescence", "setting": "[2]; ligand: 30 µM Zn", "result": "0.0574 ± 0.0054"}
    ]},
    {"variant": "MNIQIGELAKRTACPVVTIRFYEQEGLLPPPGRSRGNFRLLGEEHVERLQFIRHCRSLDMPLSDVRTLLSYRKRPDQDCGEVNMLLDEHIRQVESRIGALLELKHHLVELREACSGARPAQSCGILQGLSDCVCDTRGTTAHPSD", "note": "[Y41L]", "values": [
      {"measurement": "sfGFP reporter fluorescence", "setting": "[1]", "result": 0.0597},
      {"measurement": "sfGFP reporter fluorescence", "setting": "[2]; ligand: 1 µM Pb", "result": "0.0596 ± 0.0029"},
      {"measurement": "sfGFP reporter fluorescence", "setting": "[2]; ligand: 30 µM Zn", "result": "0.0729 ± 0.0083"}
    ]},
    {"variant": "MNIQIGELAKRTACPVVTIRFYEQEGLLPPPGRSRGNFRLVGEEHVERLQFIRHCRSLDMPLSDVRTLLSYRKRPDQDCGEVNMLLDEHIRQVESRIGALLELKHHLVELREACSGARPAQSCGILQGLSDCVCDTRGTTAHPSD", "note": "[Y41V]", "values": [
      {"measurement": "sfGFP reporter fluorescence", "setting": "[1]", "result": "0.059 ± 0.001"},
      {"measurement": "sfGFP reporter fluorescence", "setting": "[2]; ligand: 1 µM Pb", "result": "0.05974 ± 0.00052"},
      {"measurement": "sfGFP reporter fluorescence", "setting": "[2]; ligand: 30 µM Zn", "result": "0.0687 ± 0.0013"}
    ]},
    {"variant": "MNIQIGELAKRTACPVVTIRFYEQEGLLPPPGRSRGNFRLSGEEHVERLQFIRHCRSLDMPLSDVRTLLSYRKRPDQDCGEVNMLLDEHIRQVESRIGALLELKHHLVELREACSGARPAQSCGILQGLSDCVCDTRGTTAHPSD", "note": "[Y41S]", "values": [
      {"measurement": "sfGFP reporter fluorescence", "setting": "[1]", "result": "0.0603 ± 0.00078"},
      {"measurement": "sfGFP reporter fluorescence", "setting": "[2]; ligand: 1 µM Pb", "result": "0.0612 ± 0.0021"},
      {"measurement": "sfGFP reporter fluorescence", "setting": "[2]; ligand: 30 µM Zn", "result": "0.0616 ± 0.0015"}
    ]},
    {"variant": "MNIQIGELAKRTACPVVTIRFYEQEGLLPPPGRSRGNFRLWGEEHVERLQFIRHCRSLDMPLSDVRTLLSYRKRPDQDCGEVNMLLDEHIRQVESRIGALLELKHHLVELREACSGARPAQSCGILQGLSDCVCDTRGTTAHPSD", "note": "[Y41W]", "values": [
      {"measurement": "sfGFP reporter fluorescence", "setting": "[1]", "result": 0.0586},
      {"measurement": "sfGFP reporter fluorescence", "setting": "[2]; ligand: 1 µM Pb", "result": "0.0658 ± 0.0029"},
      {"measurement": "sfGFP reporter fluorescence", "setting": "[2]; ligand: 30 µM Zn", "result": "0.1977 ± 0.00078"}
    ]},
    {"variant": "MNIQIGELAKRTACPVVTIRFYEQEGLLPPPGRSRGNFRLNGEEHVERLQFIRHCRSLDMPLSDVRTLLSYRKRPDQDCGEVNMLLDEHIRQVESRIGALLELKHHLVELREACSGARPAQSCGILQGLSDCVCDTRGTTAHPSD", "note": "[Y41N]", "values": [
      {"measurement": "sfGFP reporter fluorescence", "setting": "[1]", "result": "0.0594 ± 0.0031"},
      {"measurement": "sfGFP reporter fluorescence", "setting": "[2]; ligand: 1 µM Pb", "result": 0.0601},
      {"measurement": "sfGFP reporter fluorescence", "setting": "[2]; ligand: 30 µM Zn", "result": "0.0597 ± 0.0015"}
    ]},
    {"variant": "MNIQIGELAKRTACPVVTIRFYEQEGLLPPPGRSRGNFRLTGEEHVERLQFIRHCRSLDMPLSDVRTLLSYRKRPDQDCGEVNMLLDEHIRQVESRIGALLELKHHLVELREACSGARPAQSCGILQGLSDCVCDTRGTTAHPSD", "note": "[Y41T]", "values": [
      {"measurement": "sfGFP reporter fluorescence", "setting": "[1]", "result": "0.0597 ± 0.0026"},
      {"measurement": "sfGFP reporter fluorescence", "setting": "[2]; ligand: 1 µM Pb", "result": "0.05974 ± 0.00052"},
      {"measurement": "sfGFP reporter fluorescence", "setting": "[2]; ligand: 30 µM Zn", "result": "0.0592 ± 0.0039"}
    ]},
    {"variant": "MNIQIGELAKRTACPVVTIRFYEQEGLLPPPGRSRGNFRLPGEEHVERLQFIRHCRSLDMPLSDVRTLLSYRKRPDQDCGEVNMLLDEHIRQVESRIGALLELKHHLVELREACSGARPAQSCGILQGLSDCVCDTRGTTAHPSD", "note": "[Y41P]", "values": [
      {"measurement": "sfGFP reporter fluorescence", "setting": "[1]", "result": "0.0583 ± 0.001"},
      {"measurement": "sfGFP reporter fluorescence", "setting": "[2]; ligand: 1 µM Pb", "result": "0.0597 ± 0.001"},
      {"measurement": "sfGFP reporter fluorescence", "setting": "[2]; ligand: 30 µM Zn", "result": "0.0601 ± 0.0026"}
    ]},
    {"variant": "MNIQIGELAKRTACPVVTIRFYEQEGLLPPPGRSRGNFRLMGEEHVERLQFIRHCRSLDMPLSDVRTLLSYRKRPDQDCGEVNMLLDEHIRQVESRIGALLELKHHLVELREACSGARPAQSCGILQGLSDCVCDTRGTTAHPSD", "note": "[Y41M]", "values": [
      {"measurement": "sfGFP reporter fluorescence", "setting": "[1]", "result": "0.0629 ± 0.00078"},
      {"measurement": "sfGFP reporter fluorescence", "setting": "[2]; ligand: 1 µM Pb", "result": "0.0596 ± 0.0023"},
      {"measurement": "sfGFP reporter fluorescence", "setting": "[2]; ligand: 30 µM Zn", "result": "0.113 ± 0.0078"}
    ]},
    {"variant": "MNIQIGELAKRTACPVVTIRFYEQEGLLPPPGRSRGNFRLYAEEHVERLQFIRHCRSLDMPLSDVRTLLSYRKRPDQDCGEVNMLLDEHIRQVESRIGALLELKHHLVELREACSGARPAQSCGILQGLSDCVCDTRGTTAHPSD", "note": "[G42A]", "values": [
      {"measurement": "sfGFP reporter fluorescence", "setting": "[1]", "result": "0.06212 ± 0.00026"},
      {"measurement": "sfGFP reporter fluorescence", "setting": "[2]; ligand: 1 µM Pb", "result": "0.0737 ± 0.0021"},
      {"measurement": "sfGFP reporter fluorescence", "setting": "[2]; ligand: 30 µM Zn", "result": "0.482 ± 0.034"}
    ]},
    {"variant": "MNIQIGELAKRTACPVVTIRFYEQEGLLPPPGRSRGNFRLYGDEHVERLQFIRHCRSLDMPLSDVRTLLSYRKRPDQDCGEVNMLLDEHIRQVESRIGALLELKHHLVELREACSGARPAQSCGILQGLSDCVCDTRGTTAHPSD", "note": "[E43D]", "values": [
      {"measurement": "sfGFP reporter fluorescence", "setting": "[1]", "result": "0.05754 ± 0.00052"},
      {"measurement": "sfGFP reporter fluorescence", "setting": "[2]; ligand: 1 µM Pb", "result": "0.072 ± 0.012"},
      {"measurement": "sfGFP reporter fluorescence", "setting": "[2]; ligand: 30 µM Zn", "result": "0.744 ± 0.036"}
    ]},
    {"variant": "MNIQIGELAKRTACPVVTIRFYEQEGLLPPPGRSRGNFRLYGCEHVERLQFIRHCRSLDMPLSDVRTLLSYRKRPDQDCGEVNMLLDEHIRQVESRIGALLELKHHLVELREACSGARPAQSCGILQGLSDCVCDTRGTTAHPSD", "note": "[E43C]", "values": [
      {"measurement": "sfGFP reporter fluorescence", "setting": "[1]", "result": "0.06066 ± 0.00026"},
      {"measurement": "sfGFP reporter fluorescence", "setting": "[2]; ligand: 1 µM Pb", "result": "0.0887 ± 0.0042"},
      {"measurement": "sfGFP reporter fluorescence", "setting": "[2]; ligand: 30 µM Zn", "result": "0.481 ± 0.018"}
    ]},
    {"variant": "MNIQIGELAKRTACPVVTIRFYEQEGLLPPPGRSRGNFRLYGAEHVERLQFIRHCRSLDMPLSDVRTLLSYRKRPDQDCGEVNMLLDEHIRQVESRIGALLELKHHLVELREACSGARPAQSCGILQGLSDCVCDTRGTTAHPSD", "note": "[E43A]", "values": [
      {"measurement": "sfGFP reporter fluorescence", "setting": "[1]", "result": "0.06304 ± 0.00052"},
      {"measurement": "sfGFP reporter fluorescence", "setting": "[2]; ligand: 1 µM Pb", "result": "0.0969 ± 0.0044"},
      {"measurement": "sfGFP reporter fluorescence", "setting": "[2]; ligand: 30 µM Zn", "result": "1.66 ± 0.077"}
    ]}
  ]
}
